From doi:10.1101/2025.02.19.639038 (bioRxiv, 2025)
Values joined by “and” are separate entries in the source; they are usually repeats but may differ in a detail not shown here. Identical values can stand only once. Each block holds one molecule with its values, some of them ahead of it.

Legend:
[1] = target: Drp6-4A (Drp6 GKFR-AAAA), N-terminal His6 tag (Tetrahymena thermophila) (UniProt Q38KF5)
[2] = target: Drp6-4A (Drp6 GKFR-AAAA), N-terminal His6 tag (Tetrahymena thermophila) (UniProt Q38KF5); assay: SEC
[3] = target: the molecule itself; assay: SEC

GTP hydrolysis rate (colorimetric Pi release, 1 μM protein, 1 mM GTP) [1]: 0.83 μM /μM/min | percent eluted in the tetramer peak (peak2) [2]: 19% | stoichiometry N [2]: 4
Molecule: Drp6-4A (Drp6 GKFR-AAAA), N-terminal His6 tag (from UniProt Q38KF5 1-710) (natural protein)

B1: Dynamin-related protein 6 (Drp6), wild type, N-terminal His6 tag (natural protein, Tetrahymena thermophila, UniProt Q38KF5 1-710, looked up)
chain: MTNTIVPANNFQNIKEVIKVVNKLRDFGIESDKIQLPKIVVIGVQSSGKSSLLEQIVQLDFLPRGTGVVTRCPLEIRLIEVTNQDSDFKPYAYFFEERQKIFHDFELVKKEIQKITNDFAGPGKKIVDKVITLTIYQAQCPTLTLIDLPGMTLNSVGDQKDIERVTQDMTKKYIIEKTTIILCVIPINQDLENSLALNLARSVDENGERTIGVLTMIDIMNPGTNCENVLKNRQIPLLHRYYGMKPRSQKDINENVSVQEAIQREQLYFTSHQIYSMYPEYTGTNALTNKLSTLLDSHIRTFLPSIHKKIKMTLSERIKERQQLGNEFPTEVTQQLYELTNIINTSLNLFKQAMTNYDASEIQNIGKIKVDERVGKSYADFLFDKYLLICKKISEEQVFKVKMKDLIKELGKFRVQVNGFLPFEVFESQIKQKINLYETEAIVILEQLKEHVRKVLNHCIDLFPFPNNKIKKIMQDILQNFVQTEYNFTSSHIKTAFYCYKDCICSKMIDIHETESKLKQNHVYLQNDNQQKKVLYEYISKNKSFMEWTVQEIMIKAENLCNVPITMSDLQNTYTKAEEKVQNTDEVLRYSIIYYKYMDNFRKQISDQIPQCIQSLFINSLCKNLMVKVFQAIQSKEYKEIIEKNLKEDEIIATKRAKVIQSIQKLAKANDRLERLIDQGQNCNHMLSTTYGDEENYIHESLEDSDGIDD
stoichiometry N [3]: ≥ 6 protomers and 4
